Results reported in US20060258562A1 (HEALOR, published 2006).

Target: T1, STAT3 (Signal Transducer and Activator of Transcription 3) (mouse, UniProt P42227 2-770)
T1 construct: Detected by anti-STAT3 Western blot in PKC immunoprecipitates
Assay: co-immunoprecipitation from primary keratinocyte lysates, anti-STAT3 Western blot
Experimental: FIG. 23 identifies a specific interaction between STAT3 and PKCδ in primary skin keratinocytes. Primary keratinocytes were either untreated (upper panel) or infected for 1 hour with isoform specific, recombinant PKC α, δ, η or ζ adenoviruses (lower panel). Cells were extracted and immunoprecipitated (IP) with isoform specific PKC antibodies. The immunoprecipitates were subjected to Western blot analysis using anti-PKCs or anti-STAT3 antibodies.

T1 sequence (P42227 2-770 limits assumed): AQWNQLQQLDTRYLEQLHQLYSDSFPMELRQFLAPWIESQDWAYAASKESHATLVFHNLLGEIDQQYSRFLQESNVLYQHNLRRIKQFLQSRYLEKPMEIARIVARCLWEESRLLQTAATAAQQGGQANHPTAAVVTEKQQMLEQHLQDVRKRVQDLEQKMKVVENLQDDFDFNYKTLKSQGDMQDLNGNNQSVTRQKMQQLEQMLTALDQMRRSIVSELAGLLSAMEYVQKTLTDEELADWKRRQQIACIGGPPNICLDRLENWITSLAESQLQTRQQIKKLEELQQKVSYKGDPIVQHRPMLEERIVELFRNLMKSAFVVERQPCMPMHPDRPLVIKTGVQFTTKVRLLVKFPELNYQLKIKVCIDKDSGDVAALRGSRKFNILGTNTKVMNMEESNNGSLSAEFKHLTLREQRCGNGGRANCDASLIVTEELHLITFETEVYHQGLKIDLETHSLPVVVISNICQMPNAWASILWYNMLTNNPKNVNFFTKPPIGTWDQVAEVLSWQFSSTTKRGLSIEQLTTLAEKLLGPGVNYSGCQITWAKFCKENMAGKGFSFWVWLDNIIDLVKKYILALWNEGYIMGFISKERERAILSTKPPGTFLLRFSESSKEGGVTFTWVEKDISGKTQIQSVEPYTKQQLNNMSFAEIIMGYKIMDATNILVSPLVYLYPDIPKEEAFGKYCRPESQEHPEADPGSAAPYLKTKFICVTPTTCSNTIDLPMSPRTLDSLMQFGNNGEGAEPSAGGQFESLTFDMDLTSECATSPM

| Binder | binding result |
| --- | --- |
| PKCη (protein kinase C eta) (enzyme, mouse, UniProt P23298 1-683, looked up) MSSGTMKFNGYLRVRIGEAVGLQPTRWSLRHSLFKKGHQLLDPYLTVSVDQVRVGQTSTKQKTNKPTYNEEFCANVTDGGHLELAVFHETPLGYDHFVANCTLQFQELLRTAGTSDTFEGWVDLEPEGKVFVVITLTGSFTEATLQRDRIFKHFTRKRQRAMRRRVHQVNGHKFMATYLRQPTYCSHCREFIWGVFGKQGYQCQVCTCVVHKRCHHLIVTACTCQNNINKVDAKIAEQRFGINIPHKFNVHNYKVPTFCDHCGSLLWGIMRQGLQCKICKMNVHIRCQANVAPNCGVNAVELAKTLAGMGLQPGNISPTSKLISRSTLRRQGKEGSKEGNGIGVNSSSRFGIDNFEFIRVLGKGSFGKVMLARIKETGELYAVKVLKKDVILQDDDVECTMTEKRILSLARNHPFLTQLFCCFQTPDRLFFVMEFVNGGDLMFHIQKSRRFDEARARFYAAEIISALMFLHEKGIIYRDLKLDNVLLDHEGHCKLADFGMCKEGICNGVTTATFCGTPDYIAPEILQEMLYGPAVDWWAMGVLLYEMLCGHAPFEAENEDDLFEAILNDEVVYPTWLHEDATGILKSFMTKNPTMRLGSLTQGGEHEILRHPFFKEIDWAQLNHRQLEPPFRPRIKSREDVSNFDPDFIKEEPVLTPIDEGHLPMINQDEFRNFSYVSPELQL | no binding |
| PKCζ (protein kinase C zeta) (enzyme, mouse, UniProt Q02956 1-592, looked up) MPSRTDPKMDRSGGRVRLKAHYGGDILITSVDAMTTFKDLCEEVRDMCGLHQQHPLTLKWVDSEGDPCTVSSQMELEEAFRLVCQGRDEVLIIHVFPSIPEQPGMPCPGEDKSIYRRGARRWRKLYRANGHLFQAKRFNRGAYCGQCSERIWGLSRQGYRCINCKLLVHKRCHVLVPLTCRRHMDSVMPSQEPPVDDKNDGVDLPSEETDGIAYISSSRKHDNIKDDSEDLKPVIDGVDGIKISQGLGLQDFDLIRVIGRGSYAKVLLVRLKKNDQIYAMKVVKKELVHDDEDIDWVQTEKHVFEQASSNPFLVGLHSCFQTTSRLFLVIEYVNGGDLMFHMQRQRKLPEEHARFYAAEICIALNFLHERGIIYRDLKLDNVLLDADGHIKLTDYGMCKEGLGPGDTTSTFCGTPNYIAPEILRGEEYGFSVDWWALGVLMFEMMAGRSPFDIITDNPDMNTEDYLFQVILEKPIRIPRFLSVKASHVLKGFLNKDPKERLGCRPQTGFSDIKSHAFFRSIDWDLLEKKQTLPPFQPQITDDYGLDNFDTQFTSEPVQLTPDDEDVIKRIDQSEFEGFEYINPLLLSAEESV | no binding |
| PKCα (protein kinase C alpha) (enzyme) not shown | no binding |
| PKCε (protein kinase C epsilon) (enzyme, mouse, UniProt P16054 1-737, looked up) MVVFNGLLKIKICEAVSLKPTAWSLRHAVGPRPQTFLLDPYIALNVDDSRIGQTATKQKTNSPAWHDEFVTDVCNGRKIELAVFHDAPIGYDDFVANCTIQFEELLQNGSRHFEDWIDLEPEGKVYVIIDLSGSSGEAPKDNEERVFRERMRPRKRQGAVRRRVHQVNGHKFMATYLRQPTYCSHCRDFIWGVIGKQGYQCQVCTCVVHKRCHELIITKCAGLKKQETPDEVGSQRFSVNMPHKFGIHNYKVPTFCDHCGSLLWGLLRQGLQCKVCKMNVHRRCETNVAPNCGVDARGIAKVLADLGVTPDKITNSGQRRKKLAAGAESPQPASGNSPSEDDRSKSAPTSPCDQELKELENNIRKALSFDNRGEEHRASSATDGQLASPGENGEVRPGQAKRLGLDEFNFIKVLGKGSFGKVMLAELKGKDEVYAVKVLKKDVILQDDDVDCTMTEKRILALARKHPYLTQLYCCFQTKDRLFFVMEYVNGGDLMFQIQRSRKFDEPRSRFYAAEVTSALMFLHQHGVIYRDLKLDNILLDAEGHCKLADFGMCKEGIMNGVTTTTFCGTPDYIAPEILQELEYGPSVDWWALGVLMYEMMAGQPPFEADNEDDLFESILHDDVLYPVWLSKEAVSILKAFMTKNPHKRLGCVAAQNGEDAIKQHPFFKEIDWVLLEQKKIKPPFKPRIKTKRDVNNFDQDFTREEPILTLVDEAIIKQINQEEFKGFSYFGEDLMP | no binding |
